In patent publication US6998239B1, “Method for identifying a modulator of the binding of CCX CKR polypeptide to a chemokine” (ChemoCentryx, Inc., priority 1999, dated 2006):
“Also recorded” adds a separate entry of the source.

Tests used:
CCX CKR [1] = biological target: T1, CCX CKR (Homo sapiens, UniProt Q9NPB9); test: Ligand binding fingerprint: displacement of 125I-ELC from CCX CKR stable transfectants by cold chemokines; details: cold competitor 200 nM; human and murine ELC, SLC, TECK; comparable with 125I-TECK
T1 construct: Full length CCX CKR expression constructs were made in pIRESpuro expression vector; expressed in transfected cells
T1 sequence (Q9NPB9 1-350): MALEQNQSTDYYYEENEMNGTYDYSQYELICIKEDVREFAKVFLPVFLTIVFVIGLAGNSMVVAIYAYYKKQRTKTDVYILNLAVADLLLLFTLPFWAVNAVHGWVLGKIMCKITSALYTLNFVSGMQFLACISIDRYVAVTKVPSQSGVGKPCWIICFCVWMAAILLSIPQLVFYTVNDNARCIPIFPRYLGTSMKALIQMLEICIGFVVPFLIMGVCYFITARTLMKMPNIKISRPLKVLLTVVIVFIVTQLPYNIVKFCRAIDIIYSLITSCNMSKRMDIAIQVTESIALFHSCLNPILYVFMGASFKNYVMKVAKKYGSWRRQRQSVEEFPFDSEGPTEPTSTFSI
From the text: (§1) In one embodiment, binding is detected as described by Dairaghi et al., 1997, J. Biol. Chem. 272:28206-209 (incorporated by reference in its entirety for all purposes) substituting CCX CKR transfectants for the CCR3 transfectants). In one embodiment, binding is detected using the filter based technique described by Dairaghi et al., 1999, J. Biol. Chem. 274:2156 (incorporated by reference in its entirety for all purposes), e.g., as shown in FIG. 4. Briefly, this technology employs expanded, efficiency-maximized radioligand binding utilizing filtration protocols. In these assays, 1×10^5 CCXCKR-293 HEK cells are incubated with […] (MlP3beta) (final concentration of ˜0.05 nM) in the presence of unlabeled chemokine for 3 h at 4° C. in 25 mM HEPES, 140 mM NaCl, 1 mM CaCl2, 5 mM MgCl2, and 0.2% bovine serum albumin, adjusted to pH 7.1. Reactions were aspirated onto PEI-treated GF/B glass filters using a cell harvester (Packard). Filters are washed twice (25 mM HEPES, 500 mM NaCl, 1 mM CaCl25 mM MgCl2, adjusted to pH 7.1) and scintillant (e.g., MicroScint 20; 50 μl) is added to dried filters and counted (e.g., using a Packard Topcount scintillation counter). The competition dose-response curves is analyzed by standard methods to determine IC50 values (e.g., using GraphPad Prism software (San Diego, Calif.)). Additionally, a Scatchard transformation can be used to estimate the receptor sites per cell (e.g., using WaveMetrics Igor software (Lake Oswego, Oreg.)).
In order to rapidly and thoroughly define a given chemokine receptor's ligand binding fingerprint, we have established an approach to comprehensively profile chemokine receptors using a large array of purified chemokines and chemokine variants. We used this approach to confirm independently the interaction of ELC and other chemokines with CCX CKR. Employing radioligand binding of ^125I-labeled-ELC or ^125I-TECK to CCX CKR stable transfectants, chemokine specificity for the new receptor was determined.
(§2) Binding analysis was carried out using efficiency-maximized radioligand binding utilizing filtration protocols designated “Displace Max” (Dairaghi et al., 1999, J Biol. Chem. 274:21569). In these assays, DisplaceMax employed the simultaneous interrogation of CCX CKR transfectants by >80 distinct purified chemokines in the ability to displace radiolabeled ELC or TECK, using the protocol described (Dairaghi et al., 1999, J Biol. Chem. 274:21569).

CCX CKR [2] = biological target: T1, CCX CKR; test: Radioligand binding competition with Scatchard transformation (binding constants); details: for Affinity class of CCX CKR ligands (summary of Examples 4-6): summary statement
From the text: as §1, §2
The binding interactions identified in the primary screen were examined quantitatively by extensive radioligand binding competition to CCX CKR stable transfectants and Scatchard transformation of the displacement data (FIG. 4B). […] In each case, the murine versions of these chemokines also bound, and with even greater affinity; the apparent Kd's are listed in FIG. 4B. […] In similar experiments, murine CTACK bound the receptor with a Kd of ˜9 nM (not shown). CTACK is also referred to as CCL27, ALP, ILC, and ESkine.

CCX CKR [3] = biological target: T1, CCX CKR; test: Ligand induced internalization of CCX CKR in 293 F-CCR10 cells (FACS, anti-Flag); format: cell-based; details: 100 nM chemokine, 37° C., 15 or 45 minutes
Protocol: 293 cells transfected with the Flag-CCX CKR fusion plasmid (i.e., “293 F-CCR10 cells;” see Example 3) were incubated at 37° C. with varying concentrations of chemokines (ELC, SLC, TECK, murine CTACK and MCP4) for 15 or 45 minutes. Following incubation, the cells were washed and fixed with 3% paraformaldehyde for 15 minutes on ice. The cells were stained with anti-Flag M1 antibody, followed by a PE-conjugated anti-mouse secondary antibody. FACS analysis were then carried out to determine surface expression of the receptor.
Results: A reduction in antibody binding in the presence of ligand is an indication of ligand-induced internalization of the receptor.

CCX CKR [4] = biological target: T1, CCX CKR; test: Adhesion of HEK293-CCX CKR cells to immobilized ELC-stalkokine and competition by soluble chemokines; format: cell-based; details: 5-10 ug/ml soluble recombinant chemokine as competitor
From the text: “Stalkokine” technology was used to :identify the chemokines bound by the CCX CKR. Briefly, immobilized native chemokines alone are incapable of capturing cells bearing cognate receptors (Imai et al., 1997, Cell 91:521). We have developed non-native chemokine structures, stalkokines, comprising chemokine moieties engineered as N-terminal attachments to extended modified mucins (Bazan et al., 1997, Nature 385:640). In one embodiment, stalkokines, harvested in the supernatants of HEK293 cells after transient transfection, are anchored to solid substrates via antibodies against carrier domains (e.g. poly-His epitopes) engineered to the carboxyl terminus, leaving the chemokine domain free to interact with candidate orphan receptors.
To determine ligand binding to CCX CKR, HEK293-CCX CKR cells were used to interrogate chemokine ‘stalkokines’ (SK), i.e., molecules in which discrete chemokine domains were engineered to be tethered to the end of an extended stalk structure. […] In all cases, nonadherent cells were removed by washing in PBS; remaining adherent cells were fixed with 1% glutaraldehyde, photoimaged and counted. […]

CCX CKR [5] = biological target: T1, CCX CKR; test: Preliminary chemotaxis analysis of CCX CKR transfectants; format: cell-based; details: preliminary chemotaxis analyses, not shown
CCX CKR [6] = biological target: T1, CCX CKR; test: Homologous competition binding of radiolabeled chemokine on HEK293-CCX CKR cells; details: data not shown
From the text: Furthermore ELC-SK mediated adhesion was abolished in the presence of soluble native ELC as a competitor (FIG. 3A, top row). […] Moreover, radiolabeled ELC was used in a traditional homologous competition assay in the presence of increasing concentrations of unlabeled ELC. […] Taken together, the stalkokine-based adhesion and radiolabeled ligand binding/homologous competition assays indicate that CCX CKR is a new chemokine receptor that bound a novel compliment of chemokines.

B1: vMIPII: virally-encoded chemokine from the human Kaposi's sarcoma herpesvirus HHV8 (protein)
chain: LGASWHRPDKCCLGYQKRPLPQVLLSSWYPTSQLCSKPGVIFLTKRGRQVCADKSKDWVKKLMQQLPVTAR
CCX CKR [1]
  Binding to CCX CKR by displacement of 125I-labeled ELC: lower affinity
CCX CKR [2]; competition against 125I-ELC
  Affinity for CCX CKR in multipoint competition, in words: moderate to low affinity
CCX CKR [2]
  Affinity class of CCX CKR ligands (summary of Examples 4-6): lower affinity

B2: murine CTACK: murine chemokine CTACK, also referred to as CCL27, ALP, ILC, and ESkine (protein)
chain: LPLPSSTSCCTQLYRQPLPSRLLRRIVHMELQEADGDCHLQAVVLHLARRSVCVHPQNRSLARWLERQGKRLQGTVPSLNLVLQKKMYSHPQQQN
CCX CKR [2]
  Affinity class of CCX CKR ligands (summary of Examples 4-6): high affinity
CCX CKR [3]
  Internalization of the receptor: Internalization of the receptor was observed

B3: SLC: secondary lymphoid-tissue chemokine, recombinant (protein)
chain: SDGGAQDCCLKYSQRKIPAKVVRSYRKQEPSLGCSIPAILFLPRKRSQAELCADPKELWVQQLMQHLDKTPSPQKPAQGCRKDRGASKTGKKGKGSKGCKRTERSQTPKGP
CCX CKR [4]
  Effect of soluble chemokine on ELC-SK mediated adhesion of HEK293-CCX CKR cells: ablation of adhesion; also recorded: significant reduction
CCX CKR [1]
  Binding to CCX CKR by displacement of 125I-labeled ELC: bound well
CCX CKR [2]
  Affinity class of CCX CKR ligands (summary of Examples 4-6): high affinity
CCX CKR [5]
  Migration of CCX CKR transfectants in response to chemokine: moderate migration
CCX CKR [3]
  Internalization of the receptor: Internalization of the receptor was observed

B4: mMIP-1gamma: murine chemokine MIP-1γ (CCF18) (protein)
chain: QITHATETKEVQSSLKAQQGLEIEMFHMGFQDSSDCCLSYNSRIQCSRFIGYFPTSGGCTRPGIIFISKRGFQVCANPSDRRVQRCIERLEQNSQPRTYKQ
CCX CKR [1]
  Binding to CCX CKR by displacement of 125I-labeled ELC: moderately
CCX CKR [2]
  Affinity class of CCX CKR ligands (summary of Examples 4-6): lower affinity

B5: TECK: thymus expressed chemokine, recombinant (protein)
chain: QGVFEDCCLAYHYPIGWAVLRRAWTYRIQEVSGSCNLPAAIFYLPKRHRKVCGNPKSREVQRAMKLLDARNKVFAKLHHNTQTFQAGPHAVKKLSSGNSKLSSSKFSNPISSSKRNVSLLISANSGL
CCX CKR [4]
  Effect of soluble chemokine on ELC-SK mediated adhesion of HEK293-CCX CKR cells: ablation of adhesion; also recorded: significant reduction
CCX CKR [6]
  Homologous competition of radiolabeled TECK with cold TECK: Nearly identical results
CCX CKR [1]
  Binding to CCX CKR by displacement of 125I-labeled ELC: bound well
CCX CKR [2]
  Affinity class of CCX CKR ligands (summary of Examples 4-6): high affinity
CCX CKR [3]
  Internalization of the receptor: Internalization of the receptor was observed
